Assay results as given in publication PMC5902495, “Synthesis of Symmetrical Tetrameric Conjugates of the Radiolanthanide Chelator DOTPI for Application in Endoradiotherapy by Means of Click Chemistry” (Frontiers in Chemistry, 2018).

Legend:
[1] = Octanol-water distribution coefficients; format: physicochemical; settings: n-octanol / PBS pH 7.4, ^177Lu-labeled tracer, n = 6
Protocol: Approximately 1 MBq of the ^177Lu-labeled tracer was added to a mixture of 0.5 mL phosphate buffered saline (PBS, pH 7.4) and 0.5 mL n-octanol in an Eppendorf tube (n = 6). After vigorous mixing of the suspension for 3 min, the vial was centrifuged at 11.500 g for 3 min for phase separation. 200 μL aliquots of each phase were withdrawn and measured in a gamma counter.

[2] = tested on: subcutaneous LNCaP (PSMA-expressing human prostate carcinoma) xenografts; experiment: Biodistribution in SCID mice bearing LNCaP xenografts; format: in vivo; settings: compared to ^177Lu-DOTPI(DBCO-KuE)4
Protocol: The experiments were carried out in accordance with the German Animal Welfare Act (Tierschutzgesetz), and were previously approved by the responsible authority (Regierung von Oberbayern). The animal model, male CB-17 SCID mice bearing subcutaneous LNCaP tumor xenografts, were generated as described before (Weineisen et al., [2014]). Approximately 1–4 MBq (varying molar activities; absolute molar amounts of active compound ranging from 0.11 to 0.15 nmol) of the ^177Lu-labeled PSMA inhibitors were injected into the tail vein of the animals, which were sacrificed 1 and 24 h post injection (n = 3 per tracer per time point). Selected organs were removed, weighted and the activities contained were measured in a γ-counter.

Question: What does the source list for `O=C(O)CC[C@H](NC(=O)N[C@@H](CCCCNC(=O)CCCCCNC(=O)CCc1cn(CCCNC(=O)CCP(=O)(O)CN2CCN(CP(=O)(O)CCC(=O)NCCCn3cc(CCC(=O)NCCCCCC(=O)NCCCC[C@H](NC(=O)N[C@@H](CCC(=O)O)C(=O)O)C(=O)O)nn3)CCN(CP(=O)(O)CCC(=O)NCCCn3cc(CCC(=O)NCCCCCC(=O)NCCCC[C@H](NC(=O)N[C@@H](CCC(=O)O)C(=O)O)C(=O)O)nn3)CCN(CP(=O)(O)CCC(=O)NCCCn3cc(CCC(=O)NCCCCCC(=O)NCCCC[C@H](NC(=O)N[C@@H](CCC(=O)O)C(=O)O)C(=O)O)nn3)CC2)nn1)C(=O)O)C(=O)O` (single isomer, unassigned) [^177Lu-DOTPI(Trz-KuE)4, metal not drawn]?
Answer: logD [1]: -5 ± 0.1; kidney uptake ([2]; 1 and 24 h post injection): remarkably low; tumor-to-organ ratios ([2]; after 24 h): substantially better; washout from non-target tissues [2]: much faster
